# Assay results taken from patent US20180134765A1 (AVIDBIOTICS, published 2018).
# T1: human NKG2D-Fc (human, UniProt P26718 78-216, limits assumed)
# T1 construct: also called natural NKG2D-Fc; not shown: Fc part
# T1 sequence (looked up): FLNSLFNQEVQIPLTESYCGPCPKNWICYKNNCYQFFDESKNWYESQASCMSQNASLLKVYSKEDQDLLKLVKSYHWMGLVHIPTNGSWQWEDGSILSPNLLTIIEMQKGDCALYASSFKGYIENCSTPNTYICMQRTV
# T2: biotinylated human NKG2D (Example 3) (human, UniProt P26718 78-216, limits assumed, biotinylated (site not stated))
# T2 construct: also called recombinant biotinylated NKG2D; surface coated biotinylated human NKG2D
# T2 sequence (looked up): T1 sequence (looked up)
# B1: WT α1-α2 soluble MICA protein (Example 3) (ligand)
# chain: EPHSLRYNLTVLSWDGSVQSGFLTEVHLDGQPFLRCDRQKCRAKPQGQWAEDVLGNKTWDRETRDLTGNGKDLRMTLAHIKDQKEGLHSLQEIRVCEIHEDNSTRSSQHFYYDGELFLSQNLETKEWTMPQSSRAQTLAMNVRNFLKEDAMKTKTHYHAMHADCLQELRRYLKSGVVLRRTVPPMVQVTRSEASGGSGDRVTITCRASQDVSTAVAWYQQKPGKAPKLLIYSASFLYSGVPSRFSGSGSGTDFTLTISSLQPEDFATYYCQQSYTTPPTFGQGTKVEIKGGSSRSSSSGGGGSGGGGEVQLVESGGGLVQPGGSLRLSCAASGFTFTSTGISWVRQAPGKGLEWVGRIYPTNGSTNYADSVKGRFTISADTSKNTAYLQMNSLRAEDTAVYYCARTYGIYDLYVDYTEYVMDYWGQGTLVTVSSGGSSRSSSSGGGGSGGGGDIQMTQSPSSLSASGGSGQITVTCRASGFYPWNITLSWRQDGVSLSHDTQQWGDVLPDGQGTYQTWVATRISQGEEQRFTCYMEHSGQHSTHPVPSGKGSHHHHHH
# notes: also called WT NKG2DL; WT MICA
# Legend:
# human NKG2D-Fc = molecular target: T1, human NKG2D-Fc; test: competition ELISA: inhibits 2 nM human NKG2D-Fc binding to plate-coated WT sMICA
# [1] = molecular target: T2, biotinylated human NKG2D (Example 3); test: biolayer interferometry (Octet), Kd = kOFF/kON
# [2] = molecular target: T2, biotinylated human NKG2D (Example 3); test: biolayer interferometry (Octet), biotinylated human NKG2D on the surface, 100 nM analyte
binder,measurement,setting,value
B1,IC50,human NKG2D-Fc,19.4 nM
same,Kd,[1],13.8 nM
same,koff,[2],0.0018 s⁻¹
same,kon,[2],130000 M⁻¹ s⁻¹
